The values that follow come from paper PMC11525548.

Broadly, the Kd is the concentration at which binding is half-saturated. A higher Kd goes with a looser complex. As usually defined, the koff is a measure of how fast the partners let go of each other. Lower therefore signals slow dissociation. One may read the kon as the second-order rate constant of association. A lower kon goes with slow association.

One experiment concerns the target human CEACAM5 extracellular domain (Homo sapiens) (UniProt P06731). Briefly: SPR. For orientation: SPR reads the build-up and loss of mass on a sensor chip optically.
Regarding “tusa Fab+Fc heavy chain Gly26Ala variant (antibody)”, the Kd was determined as 8.2 nM, the off-rate (koff) worked out at 0.00322 s⁻¹ and the on-rate (kon) stood at 395000 M⁻¹ s⁻¹.

As to “tusa Fab+Fc heavy chain His99Ala variant (antibody)”, the Kd is 306 nM, the koff amounted to 0.0199 s⁻¹ and the kon is 64800 M⁻¹ s⁻¹.

Regarding “tusa Fab+Fc heavy chain Phe29Ala variant (antibody)”, the equilibrium dissociation constant (Kd) is 8.2 nM and the koff was 0.00368 s⁻¹.

Turning to “tusa Fab+Fc heavy chain Ser30Ala variant (antibody)”, the dissociation constant Kd stood at 6.7 nM, the koff was 0.00205 s⁻¹ and the kon is 307000 M⁻¹ s⁻¹.

The substance “tusa Fab+Fc heavy chain Ser53Ala variant (antibody)” displayed an equilibrium dissociation constant (Kd) of 5.6 nM and an on-rate constant (kon) of 321000 M⁻¹ s⁻¹.

“tusa Fab+Fc heavy chain Tyr50Ala variant (antibody)” gave an equilibrium dissociation constant (Kd) of 2010 nM, a koff of 0.0531 s⁻¹ and a kon of 26400 M⁻¹ s⁻¹.

Substance “tusa Fab+Fc light chain His91Ala variant (antibody)” yielded an off-rate (koff) of 0.0637 s⁻¹ and a kon of 73200 M⁻¹ s⁻¹.

“tusa Fab+Fc light chain Phe30Ala variant (antibody)” had a Kd of 1340 nM, a koff of 0.0362 s⁻¹ and a t1/2 of dissociation of 18 s.

“tusa Fab+Fc light chain Ser31Ala variant (antibody)” yielded a Kd of 8.2 nM, a koff of 0.00238 s⁻¹ and a kon of 291000 M⁻¹ s⁻¹.

“tusa Fab+Fc light chain Tyr92Ala variant (antibody)” displayed a Kd of 1790 nM, a koff of 0.0552 s⁻¹ and an on-rate (kon) of 30800 M⁻¹ s⁻¹.

“tusamitamab antigen-binding fragment region plus the fragment crystallizable region, wild type (antibody)”: the dissociation constant Kd stood at 14 nM, the dissociation rate constant (koff) turned out to be 0.00386 s⁻¹ and the association rate constant (kon) came out at 275000 M⁻¹ s⁻¹.

In the next experiment the target is tusa Fab+Fc light chain Pro95Ala variant (human) (UniProt P01834). The experiment in a line: SPR.
The substance “human CEACAM5 extracellular domain (from UniProt P06731 35-685) (domain or fragment)” returned a Kd of 13500 nM, a koff of 0.0177 s⁻¹ and a kon of 1310 M⁻¹ s⁻¹.
